From article PMC2172933

Molecular target: neural cell adhesion molecule 140 (NCAM140), rat, expressed in CHO cells (rat) (UniProt P13596)
Assay: co-IP

Sequence of UniProt P13596 (P13596 20-858): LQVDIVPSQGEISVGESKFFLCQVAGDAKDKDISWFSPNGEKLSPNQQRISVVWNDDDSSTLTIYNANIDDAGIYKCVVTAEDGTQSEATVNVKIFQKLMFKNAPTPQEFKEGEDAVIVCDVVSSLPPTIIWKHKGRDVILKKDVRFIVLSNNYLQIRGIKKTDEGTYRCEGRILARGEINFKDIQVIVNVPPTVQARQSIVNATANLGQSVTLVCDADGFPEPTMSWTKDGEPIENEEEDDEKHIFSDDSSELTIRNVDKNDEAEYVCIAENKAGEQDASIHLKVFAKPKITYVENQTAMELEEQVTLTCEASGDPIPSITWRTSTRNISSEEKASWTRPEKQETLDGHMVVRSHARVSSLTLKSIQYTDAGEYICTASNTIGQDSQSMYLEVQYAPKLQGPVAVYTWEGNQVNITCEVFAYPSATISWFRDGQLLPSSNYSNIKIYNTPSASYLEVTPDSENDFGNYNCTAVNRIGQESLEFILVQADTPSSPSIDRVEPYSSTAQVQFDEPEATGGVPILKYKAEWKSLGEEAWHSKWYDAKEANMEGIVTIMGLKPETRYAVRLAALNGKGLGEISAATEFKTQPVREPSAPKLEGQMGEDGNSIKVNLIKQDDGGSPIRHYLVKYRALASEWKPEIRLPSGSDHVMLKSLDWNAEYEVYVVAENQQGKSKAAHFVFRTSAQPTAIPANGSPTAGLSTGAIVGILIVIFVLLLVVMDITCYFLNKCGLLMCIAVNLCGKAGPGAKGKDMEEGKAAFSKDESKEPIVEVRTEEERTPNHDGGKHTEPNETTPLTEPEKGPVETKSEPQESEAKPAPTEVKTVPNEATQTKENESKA

- percent of the amount of spectrin that coprecipitated with NCAM180 (set to 100%): 69.8%
Substance: βI spectrin, endogenous in CHO cells, A0A9J7GYU9 1-2329
